Two proteins from PMC3061879, “Crystal Structure of a Coiled-Coil Domain from Human ROCK I” (PLoS ONE, 2011) can be followed below.

Series [1] deals with the molecule itself. The experiment in a line: crystal structure; SeMet ROCK (535–700), space group P4(3)2(1)2; 13% MPD, 100 mM NaCl, 100 mM sodium acetate pH 4.9, 10 mM DTT, 5% glycerol, 10 mM spermidine; SAD phasing; four molecules (2 dimers) per asymmetric unit.
Series [2] deals with the molecule itself. Nature of the series: SEC-MALS; Superdex 200 in 20 mM Hepes pH 7.5, 150 mM NaCl, 2 mM TCEP; Wyatt miniDAWN TREOS three-angle light scattering detector and Optilab-rEX refractive index detector.

B1: ROCK coiled-coil domain (ROCK-CC, residues 535–700) of human ROCK I (domain or fragment, UniProt Q13464 535-700, looked up)
chain: LANEKLSQLQKQLEEANDLLRTESDTAVRLRKSHTEMSKSISQLESLNRELQERNRILENSKSQTDKDYYQLQAILEAERRDRGHDSEMIGDLQARITSLQEEVKHLKHNLEKVEGERKEAQDMLNHSEKEKNNLEIDLNYKLKSLQQRLEQEVNEHKVTKARLTD
modifications: selenomethionine (SeMet) substituted protein in the crystals used for the structure
notes: Rho-associated kinase ROCK I (p160 ROCK), human, residues 535-700 of the central coiled-coil domain; The model holds residues 542–693 (A), 541–692 (B), 535–692 (C), 535–693 (D); also called ROCK (535–700); p160 ROCK (535–700); source: E. coli Rosetta2 (DE3), purified (Ni-NTA, TEV cleavage, cation exchange HiTrap SP); not shown: 6xHistidine-TEV, N-terminal, cleaved
With B1, in series [1], the binding result was “binds”.

B2: ROCK (535–704), coiled-coil fragment of human ROCK I (domain or fragment, UniProt Q13464 535-704, looked up)
chain: LANEKLSQLQKQLEEANDLLRTESDTAVRLRKSHTEMSKSISQLESLNRELQERNRILENSKSQTDKDYYQLQAILEAERRDRGHDSEMIGDLQARITSLQEEVKHLKHNLEKVEGERKEAQDMLNHSEKEKNNLEIDLNYKLKSLQQRLEQEVNEHKVTKARLTDKHQS
notes: Rho-associated kinase ROCK I (p160 ROCK), human, residues 535-704 of the central coiled-coil domain; The purification is described only for ROCK (535–700); also called ROCK-CC (as called in the text and legend title of the SEC-MALS experiment); source: E. coli Rosetta2 (DE3), purified
For B2, the “stoichiometry N” value in series [2] is 2.
